# Source: publication PMC9181005, “Insights to the Structural Basis for the Stereospecificity of the Escherichia coli Phytase, AppA” (International Journal of Molecular Sciences, 2022)
# Changes are numbered by the printed parent chain. Numbers in names are those of the source.
# B1: AppA (Escherichia coli periplasmic phytase) (Escherichia coli K-12) (protein)
# chain: QSEPELKLESVVIVSRHGVRAPTKATQLMQDVTPDAWPTWPVKLGWLTPRGGELIAYLGHYQRQRLVADGLLAKKGCPQSGQVAIIADVDERTRKTGEAFAAGLAPDCAITVHTQADTSSPDPLFNPLKTGVCQLDNANVTDAILSRAGGSIADFTGHRQTAFRELERVLNFPQSNLCLKREKQDESCSLTQALPSELKVSADNVSLTGAVSLASMLTEIFLLQQAQGMPEPGWGRITDSHQWNTLLSLHNAQFYLLQRTPEVARSRATPLLDLIKTALTPHPPQKQAYGVTLPTSVLFIAGHDTNLANLGGALELNWTLPGQPDNTPPGGELVFERWRRLSDNSQWIQVSLVFQTLQQMRDKTPLSLNTPPGEVKLTLAGCEERNAQGMCSLAGFTQIVNEARIPACSL
# notes: mature enzyme lacking the periplasmic signal peptide (residues 1–22)
# B2: AppA-HDE (Escherichia coli K-12; T327E) (protein)
# chain: B1 chain with T305E
# notes: as for B1
# B3: AppA-HET (Escherichia coli K-12; D326E) (protein)
# chain: B1 chain with D304E
# notes: as for B1
# B4: AppA-HAE (Escherichia coli K-12; D326A/T327E) (protein)
# chain: B1 chain with D304A, T305E
# notes: as for B1
# B5: AppA-HAT (Escherichia coli K-12; D326A) (protein)
# chain: B1 chain with D304A
# notes: as for B1
# Legend:
# [1] = molecular target: T1, AppA (Escherichia coli periplasmic phytase) (Escherichia coli, UniProt P07102); assay: X-ray crystal structure at […] Å (soak at pH […]); phytase inhibition assay at pH […]; type: biochemical
# T1 construct: mature enzyme lacking the periplasmic signal peptide (residues 1–22)
# T1 sequence (P07102 23-432): B1 chain
# [2] = substrate: O=P(O)(O)O[C@H]1[C@H](OP(=O)(O)O)[C@@H](OP(=O)(O)O)[C@H](OP(=O)(O)O)[C@@H](OP(=O)(O)O)[C@H]1OP(=O)(O)O; assay: phosphate release kinetics (Km), HPLC of products; type: biochemical, Escherichia coli; settings: active site
# [3] = preferential hydrolysis of the 1D-6-phosphate
# [4] = predominantly 1D-1/3-phytase activity
Molecule,Km [2] [µM],kcat [2] [s⁻¹],kcat/Km [2] [M⁻¹ s⁻¹],other results
O=S(=O)(O)O[C@H]1[C@H](OS(=O)(=O)O)[C@@H](OS(=O)(=O)O)[C@H](OS(=O)(=O)O)[C@@H](OS(=O)(=O)O)[C@H]1OS(=O)(=O)O [InsS6],–,–,–,IC50 [1]: ~10 µM
B1,–,–,–,"Km [2, 3]: 161 µM; kcat [2, 3]: 10200 s⁻¹; kcat/Km [2, 3]: 6.4e+07 M⁻¹ s⁻¹"
B2,92,1690,1.8e+07,–
B3,171,128,700000,–
B4,33,12.5,380000,–
B5,–,–,–,"Km [2, 4]: 32 µM; kcat [2, 4]: 10.5 s⁻¹; kcat/Km [2, 4]: 320000 M⁻¹ s⁻¹"
